Experimental data as given in patent publication EP0155825A2, “Novel choline derivatives” (NITTO BOSEKI CO., LTD., priority 1984, dated 1985).

Substrate: C[N+](C)(C)CCOC(=O)c1ccc(O)c(O)c1
Assay: Km of the substrate for cholinesterase (UV method, absorbance decrease at 340 nm)
Format: biochemical
Conditions: other: 50 mM TRIS-maleate buffer (pH 8.20); compound as substrate of Ch-E; pH 8.2; 37.0 °C
From the text: Fig. 1 represents UV spectra of 3,4-dihydroxybenzoylcholine iodide (hereinafter referred to briefly as DHBCI) and 3,4-dihydroxybenzoic acid. When DHBCI is hydrolyzed by the action of Ch-E, there are formed choline and 3,4-dihydroxybenzoic acid. […] Therefore, when DHBCI, a novel compound according to the present invention, is used as substrate in the assay of enzymatic activity of Ch-E and the reaction is traced through the absorbance at a wavelength of 340-360 nm, it is possible to follow precisely the decrease in substrate DHBCI. In the previously mentioned method of W. Kalow, since the measurement is done at a shorter wavelength of 240 nm, the initial absorption is interfered with by the blood constituents, whereas at a wavelength of 340-360 nm, the interference is very little and the conditions of reaction can be set up more easily. […]
The assay was performed by adjusting the substrate concentration to 0.25 mM with a 50 mM TRIS-maleate buffer (pH 8.20), preheating for about 5 minutes 2.0 mt of-the adjusted solution to 37°C, admixing the preheated solution with 200 µℓ of a serum, and immediately measuring the absorbance decrease at 340 nm of the mixture at 37°C. […] The activity of Ch-E was calculated from the following equation: [formula] • ^* ΔO.D.: Absorbance change per minute at a wavelength of 340 nm. • ^** Molar absorbance at 340 nm: 2960

B1: cholinesterase (enzyme code number of 3.1.1.8; referred to briefly as Ch-E) (Homo sapiens) (protein)
chain: EDDIIIATKNGKVRGMNLTVFGGTVTAFLGIPYAQPPLGRLRFKKPQSLTKWSDIWNATKYANSCCQNIDQSFPGFHGSEMWNPNTDLSEDCLYLNVWIPAPKPKNATVLIWIYGGGFQTGTSSLHVYDGKFLARVERVIVVSMNYRVGALGFLALPGNPEAPGNMGLFDQQLALQWVQKNIAAFGGNPKSVTLFGESAGAASVSLHLLSPGSHSLFTRAILQSGSFNAPWAVTSLYEARNRTLNLAKLTGCSRENETEIIKCLRNKDPQEILLNEAFVVPYGTPLSVNFGPTVDGDFLTDMPDILLELGQFKKTQILVGVNKDEGTAFLVYGAPGFSKDNNSIITRKEFQEGLKIFFPGVSEFGKESILFHYTDWVDDQRPENYREALGDVVGDYNFICPALEFTKKFSEWGNNAFFYYFEHRSSKLPWPEWMGVMHGYEIEFVFGLPLERRDNYTKAEEILSRSIVKRWANFAKYGNPNETQNNSTSWPVFKSTEQKYLTLNTESTRIMTKLRAQQCRFWTSFFPKVLEMTGNIDEAEWEWKAGFHRWNNYMMDWKNQFNDYTSKKESCVGL
notes: admixing the preheated solution with 200 µℓ of a serum; tissue Nissui Seiyaku Co. consera I; host or cells: serum (commercial control serum)
Question: Which Km does the source give for B1 here?
Answer: 26 µM
